23 substances from US20090048164A1 can be followed below.

For assay [1], the target named is A1. The assay can be described thus: Biacore competition vs immobilised BimBH3. A general note: Surface plasmon resonance follows binding to a sensor surface in real time, without labels.
The target in assay [2] is Bcl-2. In words: Biacore competition vs immobilised BimBH3.
The target of assay [3] is Bcl-w. The assay can be described thus: Biacore competition vs immobilised BimBH3.
In assay [4] the target is Recombinant human Bcl-xL with a 25 amino acid truncation of its C-terminus (human) (UniProt Q07817). In words: Biacore competition vs immobilised BimBH3.
Recombinant human Bcl-xL with a 25 amino acid truncation of its C-terminus (human), sequence (Q07817 1-208): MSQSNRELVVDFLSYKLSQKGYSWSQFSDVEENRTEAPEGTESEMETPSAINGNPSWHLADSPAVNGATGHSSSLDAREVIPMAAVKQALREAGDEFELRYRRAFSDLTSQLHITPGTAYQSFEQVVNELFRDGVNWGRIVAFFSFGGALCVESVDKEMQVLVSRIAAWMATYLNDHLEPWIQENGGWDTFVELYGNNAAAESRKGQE
Assay [5] deals with mouse Mcl-1 with truncations of 151 amino acid residues at its N-terminus and 23 residues at its C-terminus (mouse) (UniProt P97287). In words: Biacore competition vs immobilised BimBH3.
mouse Mcl-1 with truncations of 151 amino acid residues at its N-terminus and 23 residues at its C-terminus (mouse), sequence (P97287 152-308): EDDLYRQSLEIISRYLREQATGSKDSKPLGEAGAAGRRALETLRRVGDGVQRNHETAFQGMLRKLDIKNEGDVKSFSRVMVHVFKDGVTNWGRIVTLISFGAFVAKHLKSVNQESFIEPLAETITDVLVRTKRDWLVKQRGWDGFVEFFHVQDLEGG
The target of assay [6] is pro-survival proteins. In words: cell-based or functional assay.
For assay [7], the target named is Bcl-2. The assay can be described thus: competition phage ELISA. A general note: In an ELISA, binding on a coated surface is turned into a signal by an enzyme label.
Assay [8] deals with Bcl-w. The assay can be described thus: competition phage ELISA.
The target in assay [9] is Recombinant human Bcl-xL with a 25 amino acid truncation of its C-terminus (human) (UniProt Q07817). The assay can be described thus: competition phage ELISA.
In assay [10] the target is mouse Mcl-1 with truncations of 151 amino acid residues at its N-terminus and 23 residues at its C-terminus (mouse) (UniProt P97287). In words: competition phage ELISA.
In assay [11] the target is Recombinant human Bcl-xL with a 25 amino acid truncation of its C-terminus (human) (UniProt Q07817). The assay can be described thus: competition phage ELISA. The source holds these as a separate data set.
Assay [12] shares this target. In words: Bim BH3 substitution scan.
Assay [13] deals with A1. The assay can be described thus: Biacore competition, synthetic peptides.
Assay [14] deals with mouse Mcl-1 with truncations of 151 amino acid residues at its N-terminus and 23 residues at its C-terminus (mouse) (UniProt P97287). The assay can be described thus: Biacore competition, synthetic peptides.
The target of assay [15] is A1. In words: Biacore competition, synthetic peptides; against wild-type BimBH3 peptide.
In assay [16] the target is Bcl-2. The description is as above.
For assay [17], the target named is Bcl-w. The description is as above.
Assay [18] deals with Recombinant human Bcl-xL with a 25 amino acid truncation of its C-terminus (human) (UniProt Q07817). Described as above.
Assay [19] deals with mouse Mcl-1 with truncations of 151 amino acid residues at its N-terminus and 23 residues at its C-terminus (mouse) (UniProt P97287). The assay is described as above.

In general, IC50 refers to the concentration that gives 50% inhibition.

Read-outs that look alike come from different tables or passages of the source.

Bcl-2, sequence (P10415 1-217): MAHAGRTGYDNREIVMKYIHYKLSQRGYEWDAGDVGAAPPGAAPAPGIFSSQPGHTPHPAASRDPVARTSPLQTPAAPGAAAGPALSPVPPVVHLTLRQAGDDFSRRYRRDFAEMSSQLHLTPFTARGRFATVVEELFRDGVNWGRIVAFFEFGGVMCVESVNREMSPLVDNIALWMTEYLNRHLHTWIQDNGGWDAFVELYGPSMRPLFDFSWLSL
Bcl-w, sequence (Q92843 1-164): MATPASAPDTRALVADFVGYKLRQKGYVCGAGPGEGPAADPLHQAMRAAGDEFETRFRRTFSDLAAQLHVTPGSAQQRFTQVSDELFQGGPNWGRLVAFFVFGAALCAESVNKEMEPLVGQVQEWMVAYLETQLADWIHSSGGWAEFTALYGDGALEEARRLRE

Consider BimBH3 A9E synthetic peptide, for which the Fold/wt BimBH3 in assay [1] is 7 fold; in assay [2] it was 56 fold; in [3], 34 fold; in assay [4] it was 68 fold; in assay [5], 2 fold.
In the case of BimS L12A, in assay [6], the % viability in wild-type MEFs turned out to be 57%.
Take BimBH3 I8A synthetic peptide: the Fold/wt BimBH3 in [1] is 1 fold; in [2], 3 fold; in assay [3], 2 fold; in assay [4], 1 fold; in [5], 1 fold.
For Bim BH3 F19A, phage-displayed (peptide), the IC50 in assay [7] came out at 11 nM; in [8], 364 nM; in assay [9], 69 nM; in [10], 16 nM; in [11], 60 nM. Also, the Fold/wt in assay [8] was 18 fold; in assay [9], 24 fold. For the same substance, in assay [11], the fold weaker than wild-type BimBH3 came out at 20 fold.
As to BimBH3 L12A + F19A synthetic peptide, the Fold/wt BimBH3 in [1] was 120 fold; in assay [4], greater than 1560 fold; in assay [5] it was 1 fold.
Take BimS A9E: in [6], the % viability in wild-type MEFs came out at 55%.
BimS F19A returned a % viability in wild-type MEFs in assay [6] of 22%.
On to Bim BH3 L12F, phage-displayed (peptide), for which the fold decrease in binding affinity in assay [12] was 5 fold.
Take Bim BH3 L12W, phage-displayed (peptide): the fold decrease in binding affinity in assay [12] amounted to 22 fold.
As for BimBH3 L12A synthetic peptide, the fold decrease in binding affinity in assay [13] was determined as 7 fold; in assay [14], 2 fold. The Fold/wt BimBH3 came out at 17 fold in assay [1]; 43 fold in assay [2]; 31 fold in assay [3]; 11 fold in assay [4]; 1 fold in assay [5].
For Bim BH3 I15A, phage-displayed (peptide), the Fold/wt in assay [7], in assay [8], in [9] and in [10] was 1 fold in each case. Moreover, the IC50 turned out to be 7 nM in assay [7], 18 nM in assay [8], 2 nM in [9] and 10 nM in assay [10].
As to BimBH3 D17A synthetic peptide, the Fold/wt BimBH3 in [1] was determined as 1 fold; in [2] it was 4 fold; in assay [3], 30 fold; in assay [4] it was 3 fold; in assay [5], 2 fold.
As to BimS G16E, in [6], the % viability in wild-type MEFs was found to be 93%.
Bim BH3 L12V, phage-displayed (peptide): in assay [12], the fold decrease in affinity lay in the range of 50 to 80 fold.
As for Bim BH3 L12A, phage-displayed (peptide), the values for the Fold/wt in [8], in [9] and in assay [10] were 24 fold, 43 fold and 1 fold, respectively. Also, the IC50 was determined as 486 nM in assay [8], 124 nM in [9], 10 nM in [10] and 130 nM in [11]. For the same substance, the fold weaker than wild-type BimBH3 in assay [11] was 50 fold. Besides, in assay [12], the fold decrease in affinity fell in the range of 50 to 80 fold.
Consider BimBH3 I15A synthetic peptide, for which the Fold/wt BimBH3 worked out at 2 fold in assay [1]; 2 fold in assay [2]; 1 fold in assay [3]; 1 fold in assay [4]; 2 fold in assay [5].
As to wild-type full-length BimS, the % viability in wild-type MEFs in [6] came out at 19%.
Take BimBH3 G16E synthetic peptide: the Fold/wt BimBH3 in assay [1] was 260 fold; in [2], 306 fold; in assay [3], greater than 256 fold; in assay [4] it was 83 fold; in assay [5], 18 fold.
In the case of BimBH3 F19A synthetic peptide, the Fold/wt BimBH3 in [1] came to 1 fold; in [2] it was 3 fold; in [3] it was 8 fold; in assay [5] it was 1 fold. Further, the fold decrease in binding affinity in assay [15] was less than 3 fold; in assay [16] it was less than 3 fold; in assay [17], 8 fold; in assay [18], less than 3 fold; in assay [19], less than 3 fold.
With Bim BH3 I8A, phage-displayed (peptide), the Fold/wt in assay [7] came out at 3 fold; in assay [8], 4 fold; in assay [9] it was 2 fold; in [10], 1 fold. In addition, the half-maximal inhibitory concentration (IC50) was 17 nM in [7], 74 nM in assay [8], 7 nM in assay [9] and 9 nM in assay [10].
With Bim BH3 R13A, phage-displayed (peptide), the Fold/wt in assay [9] and in assay [10] was 1 fold in each case. The 50% inhibitory concentration (IC50) in assay [9] is 4 nM; in assay [10], 13 nM.
As to Bim BH3 W7A, phage-displayed (peptide), in [9], the Fold/wt was 1 fold and the IC50 amounted to 3 nM. In assay [10], this substance came in with a Fold/wt of 1 fold and an IC50 of 10 nM.
On to Bim BH3 Y23A, phage-displayed (peptide), for which, in assay [9], the Fold/wt was determined as 1 fold and the IC50 stood at 4 nM. In [10], this substance returned a Fold/wt of 1 fold and a half-inhibitory concentration (IC50) of 12 nM.
